Residue numbers refer to the chain shown, from its start.

The source of these data is patent US20050208041A1 (Bristol-Myers Squibb, published 2005).

T1: purified recombinant IFNAR-1 extracellular fragment (human, UniProt P17181 28-436)
T1 construct: extracellular domain; also called soluble IFNAR-1; soluble IFNAR
T1 sequence (looked up): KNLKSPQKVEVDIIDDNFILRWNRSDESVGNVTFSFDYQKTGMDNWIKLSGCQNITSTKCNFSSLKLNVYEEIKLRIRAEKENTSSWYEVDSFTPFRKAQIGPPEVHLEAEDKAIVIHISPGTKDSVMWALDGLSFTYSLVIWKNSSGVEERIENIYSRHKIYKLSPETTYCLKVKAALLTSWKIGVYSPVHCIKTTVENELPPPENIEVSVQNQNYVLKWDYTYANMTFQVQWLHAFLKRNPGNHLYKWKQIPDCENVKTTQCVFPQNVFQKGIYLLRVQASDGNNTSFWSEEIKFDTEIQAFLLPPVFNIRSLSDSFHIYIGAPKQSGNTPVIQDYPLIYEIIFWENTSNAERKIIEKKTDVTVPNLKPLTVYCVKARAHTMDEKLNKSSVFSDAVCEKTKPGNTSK

B1: M3 heavy chain with K1-CD light chain (antibody, human IgG4, V domains shown)
VH: EVQLLESGGGLVQPGGSLRLSCAFSGFTLSTSGMGIGWVRQAPGKGLEWVAHIWWDDDKYYNPSLKSRFTISRDTSKNTVYLQMNSLRAEDTAVYYCARNYYPYDAWFDYWGQGTLVTVS
VL: DIQMTQSPSSLSASVGDRVTITCSASTSINSNHLNWYQQKPGKAPKLLIYRTSILASGVPSRFSGSGSGTSFTLTISSLQPEDFATYYCQQGSNIPFTFGQGTKVEIKR
notes: also called M3 K1-C/D
B2: M3 heavy chain with K1-DE light chain (antibody, human IgG4, V domains shown)
VH: B1 VH
VL: B1 VL with T27S, G92T
notes: also called M3 K1-D/E
B3: M3 heavy chain with K1-CDE light chain (antibody, human IgG4, V domains shown)
VH: B1 VH
VL: B1 VL with G92T
notes: also called M3 K1-C/D/E
B4: M3-A heavy chain with K1 light chain (antibody, human IgG4, V domains shown)
VH: B1 VH with M34A
VL: B1 VL with T27S, N35H
notes: also called M3-A K1
B5: M3-AB heavy chain with K1 light chain (antibody, human IgG4, V domains shown)
VH: B1 VH with M34A, S67A
VL: B1 VL with T27S, N35H
notes: also called M3-A/B K1
B6: M3 heavy chain with K1-E light chain (antibody, human IgG4, V domains shown)
VH: B1 VH
VL: B1 VL with T27S, N35H, G92T
notes: also called M3 K1-E
B7: M3 heavy chain with K1-D light chain (antibody, human IgG4, V domains shown)
VH: B1 VH
VL: B1 VL with T27S
notes: also called M3 K1-D
B8: M3-AB heavy chain with K1-CD light chain (antibody, human IgG4, V domains shown)
VH: B1 VH with M34A, S67A
VL: B1 VL
notes: also called M3-A/B K1-C/D
B9: M3-4 (X = L) heavy chain with K1 light chain (antibody, V domains shown)
VH: B1 VH with P103L
VL: DIQMTQSPSSLSASVGDRVTITCSASSSINSNHLHWYQQKPGKAPKLLIYRTSILASGVPSRFSGSGSGTSFTLTISSLQPEDFATYYCQQGSNIPFTFGQGTKVEIK
notes: the position is counted within CDR3, not on the entry; also called M3-4 L
B10: M3-4 (X = W) heavy chain with K1 light chain (antibody, V domains shown)
VH: B1 VH with P103W
VL: B9 VL
notes: Position counted within VH CDR3; also called M3-4 W
B11: M3-4 (X = I) heavy chain with K1 light chain (antibody, V domains shown)
VH: B1 VH with P103I
VL: B9 VL
notes: Position counted within VH CDR3; also called M3-4 I
B12: M3-4 (X = R) heavy chain with K1 light chain (antibody, V domains shown)
VH: B1 VH with P103R
VL: B9 VL
notes: Position counted within VH CDR3; also called M3-4 R
B13: M3-4 (X = A) heavy chain with K1 light chain (antibody, V domains shown)
VH: B1 VH with P103A
VL: B9 VL
notes: Position counted within VH CDR3; also called M3-4 A
B14: M3-4 (X = C) heavy chain with K1 light chain (antibody, V domains shown)
VH: B1 VH with P103C
VL: B9 VL
notes: Position counted within VH CDR3; also called M3-4 C
B15: M3-4 (X = G) heavy chain with K1 light chain (antibody, V domains shown)
VH: B1 VH with P103G
VL: B9 VL
notes: Position counted within VH CDR3; also called M3-4 G
B16: M3-4 (X = S) heavy chain with K1 light chain (antibody, V domains shown)
VH: B1 VH with P103S
VL: B9 VL
notes: Position counted within VH CDR3; also called M3-4 S
B17: M3-4 (X = K) heavy chain with K1 light chain (antibody, V domains shown)
VH: B1 VH with P103K
VL: B9 VL
notes: Position counted within VH CDR3; also called M3-4 K
B18: M3-4 (X = D) heavy chain with K1 light chain (antibody, V domains shown)
VH: B1 VH with P103D
VL: B9 VL
notes: Position counted within VH CDR3; also called M3-4 D
B19: M3-4 (X = N) heavy chain with K1 light chain (antibody, V domains shown)
VH: B1 VH with P103N
VL: B9 VL
notes: Position counted within VH CDR3; also called M3-4 N
B20: M3-4 (X = T) heavy chain with K1 light chain (antibody, V domains shown)
VH: B1 VH with P103T
VL: B9 VL
notes: Position counted within VH CDR3; also called M3-4 T
B21: M3-4 (X = E) heavy chain with K1 light chain (antibody, V domains shown)
VH: B1 VH with P103E
VL: B9 VL
notes: Position counted within VH CDR3; also called M3-4 E
B22: M3-4 (X = M) heavy chain with K1 light chain (antibody, V domains shown)
VH: B1 VH with P103M
VL: B9 VL
notes: Position counted within VH CDR3; also called M3-4 M
B23: M3-4 (X = V) heavy chain with K1 light chain (antibody, V domains shown)
VH: B1 VH with P103V
VL: B9 VL
notes: Position counted within VH CDR3; also called M3-4 V
B24: M3-4 (X = H) heavy chain with K1 light chain (antibody, V domains shown)
VH: B1 VH with P103H
VL: B9 VL
notes: Position counted within VH CDR3; also called M3-4 H
B25: M3-11 (X = A) heavy chain with K1 light chain (antibody, V domains shown)
VH: B1 VH with Y110A
VL: B9 VL
notes: Position counted within VH CDR3; also called M3-11 A
B26: M3-11 (X = G) heavy chain with K1 light chain (antibody, V domains shown)
VH: B1 VH with Y110G
VL: B9 VL
notes: Position counted within VH CDR3; also called M3-11 G
B27: M3-11 (X = E) heavy chain with K1 light chain (antibody, V domains shown)
VH: B1 VH with Y110E
VL: B9 VL
notes: Position counted within VH CDR3; also called M3-11 E
B28: M3-11 (X = C) heavy chain with K1 light chain (antibody, V domains shown)
VH: B1 VH with Y110C
VL: B9 VL
notes: Position counted within VH CDR3; also called M3-11 C
B29: M3-11 (X = D) heavy chain with K1 light chain (antibody, V domains shown)
VH: B1 VH with Y110D
VL: B9 VL
notes: Position counted within VH CDR3; also called M3-11 D
B30: M3-11 (X = F) heavy chain with K1 light chain (antibody, V domains shown)
VH: B1 VH with Y110F
VL: B9 VL
notes: Position counted within VH CDR3; also called M3-11 F

The target of one experiment is T1, purified recombinant IFNAR-1 …. Kind of experiment: Biacore, response on IFNAR-1 (flow cell 2) divided by response on anti-human IgG Fc (flow cell 4). The source says: A series of antibodies were constructed with reduced numbers of potential T-cell epitopes. These included heavy chain variants M3-A and M3-B in which residues were changed in CDR regions and DI M3 in which framework residues were altered. De-immunized light chains were also constructed termed K1-C, K1-D, K1-E and DI K1. The antibodies were expressed and purified before analysis by Biacore. A Biacore chip was used with IFNAR-1 coated on Flow cell 2 at 690 RU and anti-human IgG Fc on flow cell 4 at 5000 RU. Binding of the antibody to IFNAR-1 relative to anti-human IgG Fc was determined by the ratio of response at flow cell 2 divided by flow cell 4 (Fc2/Fc4).
A general note: SPR reads the build-up and loss of mass on a sensor chip optically.
Take B1: the “% activity relative to H3K1” value was 57% and the Fc2/Fc4 was determined as 0.17. B2: the Fc2/Fc4 is -0.1.

For B3, the Fc2/Fc4 is -0.1. On to B4, for which the “% activity relative to H3K1” value stood at 17% and the Fc2/Fc4 amounted to 0.05. In the same order, the values of B5 are 43% and 0.13. B6: the Fc2/Fc4 is -0.05.

Turning to B7, the “% activity relative to H3K1” value came out at 30% and the Fc2/Fc4 turned out to be 0.09.

In the case of B8, the “% activity relative to H3K1” value was found to be 23% and the Fc2/Fc4 amounted to 0.07.

For a further experiment the target is unchanged. Description: Biacore, maximal association on IFNAR-1 relative to M3K1. The source says:
(§1) Pools 4 and 11 were selected for further study and the individual antibodies in each pool were produced and expressed separately. The sequences of these individual antibodies were as shown in SEQ ID NO:12 of FIG. 1F and SEQ ID NO: 13 of FIG. 1G. The data is presented as maximal association relative to M3K1. […]
Regarding B9, the “% activity relative to M3K1” value was 126%. The same measure, in the same setting: to B10 belongs 93%; to B11, 106%; to B12, 106%. For B13, the “% activity relative to M3K1” value was 107%. Still for that read-out and setting: to B14 belongs 123%; to B15, 114%; to B16, 110%. The same measure, in the same setting: to B17 belongs 86%; to B18, 100%; to B19, 49%. As for B20, the “% activity relative to M3K1” value came out at 103%. For B21, the “% activity relative to M3K1” value came out at 128%. For B22, the “% activity relative to M3K1” value stood at 101%.

With B23, the “% activity relative to M3K1” value amounted to 122%.

With B24, the “% activity relative to M3K1” value came out at 79%.

Another experiment shares this target. Described as above. This is another data set of the same source.
Description: as §1
B25: the “% activity relative to M3K1” value was found to be 93%. With B26, the “% activity relative to M3K1” value came out at 63%. Still for that read-out and setting: to B27 belongs 105%. On the same count and under the same terms, to B28 belongs 64%. Consider B29, for which the “% activity relative to M3K1” value came out at 67%. For B30, the “% activity relative to M3K1” value is 93%.
